These results are taken from patent US12102667B2, “Polypeptides and antibiotics against gram-negative bacterium comprising the same” (priority 2021, dated 2024).

In data set [1] the test system is Pseudomonas aeruginosa (ATCC 13388). The data set is described as follows: Killing activity of endolysin, in vitro test. It counts as cell-based. The conditions noted are these: 2 μM, 37° C., 2 hours, 20 mM Tris-Cl pH 7.5. As for the experimental part:
(§1) For this, endolysin EC340 at a concentration of 2 μM and each test bacterium were added to reaction buffer (20 mM Tris-Cl, pH 7.5) so that the final concentration was to be 200 μl, and were left at 37° C. for 2 hours. After 2 hours, the number of colonies of Acinetobacter baumannii, Pseudomonas aeruginosa and Escherichia coli was confirmed, and the result was shown in FIG. 3.

In data set [2] the test system is Acinetobacter baumannii (ATCC19606). Description: Killing activity of endolysin, in vitro test. The data set is classed as cell-based. Conditions: 2 μM, 37° C., 2 hours, 20 mM Tris-Cl pH 7.5. The method, then: as §1
Another data set concerns E. coli ATCC 8739. Description: Zymogram assay. The data set is classed as biochemical, Escherichia coli. The conditions noted are these: 3 μg purified endolysin, gel with autoclaved E. coli ATCC 8739. As for the experimental part:
Zymogram assay was performed with some modifications of the previously described method (Khakhum et al., 2016). In other words, an overnight culture of E. coli ATCC 8739 was harvested, washed with phosphate buffered solution (PBS) once, and then harvested by centrifugation at 4,000×g for 15 minutes. Then, the pellets were resuspended in 3 ml of deionized water. The cells were autoclaved and added to a 15% SDS-PAGE gel prior to polymerization. Then, 3 μg of purified endolysin (EC340, mtEC340 or LNT113) was mixed with 2× sample buffer (0.5 mM Tris-HCl, pH 6.8, 20% glycerol, 0.2% bromophenol blue) and loaded on SDS-PAGE. After electrophoresis, the gel was washed with deionized water for 1 hour and incubated in reaction buffer (1% Triton X-100, 20 mM Tris-HCl, pH 7.5) at a room temperature.

For data set [3], the system named is E. coli. Description: Checkerboard assay (MIC in combination, FIC index). The data set is classed as cell-based, Escherichia coli. The conditions noted are these: E. coli ATCC8738. As for the experimental part:
LNT113 was vertically diluted 2-fold and the antibiotic was serially diluted horizontally in a 96-well plate. Bacterium at a concentration of 10^6 CFU/ml were added to each well in a CAA medium. […] The fractional inhibitory concentration (FIC) for the LNT113 or antibiotic was calculated by dividing the MIC of two drugs by combining it with the MIC of each drug alone. […] The FICI was considered as a synergistic effect ≤0.5, an additive >0.5 ˜≤1, an independent effect (indifference)>1.0 ˜≤2, and an antagonistic effect (antagonism) >2.

The subject of another data set is K. pneumoniae. Description: Antibacterial activity analysis (colony count after 2 hours in buffer). It counts as cell-based, Klebsiella pneumoniae. Conditions: 2 μM. The method, then:
(§2) The antibacterial activity of the purified protein was tested for E. coli and various K. pneumoniae strains. The bacterium were grown to an exponential phase (OD600=0.5) and harvested by centrifugation at 12,000×g for 3 minutes. Then, the pellets were washed with reaction buffer solution (20 mM Tris-HCl, pH 7.5) and diluted to about 10^6 cells/ml in the buffer solution. Then, 100 μl bacterial suspension was mixed with the purified endolysin of 100 μl in the reaction buffer solution and incubated at 37° C. for 2 hours. Finally, the mixture was diluted with PBS and loaded on an LB plate. After culturing at 37° C. overnight, the bacterial colonies were counted. All the analysis was performed in triplicate.
(§3) The same reaction was performed for the selected subject bacterium in 20 mM HEPES-NaOH, 150 mM NaCl [pH 7.4], and the unique antibacterial activity of Tris and dependence of endolysin for turgor pressure were excluded (FIG. 10a and FIG. 10b). […] The bacterial cells grown geometrically were cultured with 2 μM endolysin in low tonicity buffers (20 mM Tris-HCl, pH 7.5 or 20 mM HEPES, pH 7.5) or high tonicity buffers (buffer solution comprising 150 mM NaCl) at 37° C. for 2 hours. The cells treated with storage buffer solution (20 mM Tris-HCl, pH 7.5, 150 mM NaCl buffer solution (pH 7.5)) were used as a negative control group. The dotted line represents the detection limit (1 Log CFU/ml).

The subject of data set [4] is E. coli. The data set is described as above. It counts as cell-based, Escherichia coli. The conditions noted are these: 2 μM. The method, then: as §2, §3, §1

B1: EC340: endolysin of E. coli bacteriophage PBEC131 (EC340-M-11-12), 162 amino acids (protein)
chain: VSRNISNNGIKFTAAFEGFRGTAYRATPNEKYLTIGYGHYGPDVTPGKTITPGQGLLLLNRDMAKAVAAVDAAAHHSLTQAQFDAVCDLVYNAGAGVIAATTGTGKALRSGDIATLRAKLALFINQNGKPLLGLRRRTAGRLALFDGKPWQEAEAIGRAVKG
modifications: synthetic_EC340
notes: endolysin of E. coli bacteriophage PBEC131 (EC340-M-11-12), 162 amino acids
As for B1, the killing activity result was “had the killing activity” in data set [1]; “had the killing activity” in data set [2]; “had the killing activity” with E. coli [4] (Escherichia coli (ATCC 8739), 37° C., 2 hours, 20 mM Tris-Cl pH 7.5). Besides, the “enzymatic activity in zymogram” value in the data set with E. coli ATCC 8739 is reported as “enzymatic activity was observed”. Moreover, the “MIC of endolysin combined with colistin: EC340” value with E. coli [3] (Colistin 0) is more than 128 µg/mL; in the data set with E. coli [3] (Colistin 0.0625) it was 32 µg/mL; in the data set with E. coli [3] (Colistin 0.125), 16 µg/mL; in the data set on E. coli [3] (Colistin 0.25) it was less than 2 µg/mL. In addition, the “antibacterial activity (number of bacterium)” value in the data set with K. pneumoniae (K. pneumoniae ATCC700603, KCTC2208, CCARM10143, F85, 2 hours, Tris-HCl pH 7.5) was “excellent antibacterial activity”; in the data set on E. coli [4] (E. coli ATCC8739, ATCC25922, CCARM1A746, CCARM1B684, 2 hours, Tris-HCl pH 7.5) it was “excellent antibacterial activity”. Moreover, the “effect of adding NaCl on antibacterial activity” value in the data set on K. pneumoniae (K. pneumoniae KCTC 2208, Tris or Hepes buffer with 150 mM NaCl) was “almost inactivated”; in the data set on E. coli [4] (E. coli ATCC 8739, Tris or Hepes buffer with 150 mM NaCl) it was “almost inactivated”.
